Test results from paper PMC3483155, “Inhibition of Pre-mRNA Splicing by a Synthetic Blom7α-Interacting Small RNA”.

Columns and labels:
[1] = target: Blom7-KH (Homo sapiens, UniProt Q7Z7F0 1-317); experiment: EMSA; 1 mM Mg2+; 20 nM RNA, 0-50 nM protein; EMSA: PBS pH 7.5, 1 mM MgCl2, 1 mM DTT, 5% glycerol, 20 min at room temperature, gel at 4°C; SPR: 1x PBS, 1 mM Mg acetate, pH 7.0 (or HEPES + 3 mM Mg acetate); conditions: protein: recombinant; tags: His6 (C-terminal as named, pET30A); label: 3' biotin; single strand
[2] = target: Blom7α wt (Homo sapiens, UniProt Q7Z7F0 1-614); experiment: as above

UGCCCCAAUCCUACACGACCCAAGGCCCCC (ssRNA) [AK48]: binds [1]; binds [2].
